In test [1] the target is T1, recombinant human VEGF165 (human, UniProt P15692-4 27-191).
T1 construct: also called hVEGF165; rhVEGF165
As to the kind of experiment: Biacore epitope binning, VEGF165 captured on immobilised VEGFBII23B04. How it is done: Biacore-based epitope binning experiments are performed to investigate which VEGF binders bind to a similar or overlapping epitope as VEGFBII23B04. To this end, VEGFBII23B04 is immobilized on a CM5 sensor chip. […] Purified VHHs (100 nM) or periplasmic extracts (1/10 diluted) are then injected with a surface contact time of 240 seconds and a flow rate of 10 uL/minute. Between different samples, the surface is regenerated with regeneration buffer (100 mM HCl). Processed curves are evaluated with Biacore T100 Evaluation software.
(SPR reads the build-up and loss of mass on a sensor chip optically.)

In test [2] the target is T1, recombinant human VEGF165. As to the kind of experiment: VEGF165/VEGFR2 AlphaScreen. On the technique in general: Bead proximity is the source of the signal in Alpha formats.
The next test addresses T2, human VEGF-C (human, UniProt P49767 103-227).
T2 construct: also called hVEGF-C
T2 sequence (looked up): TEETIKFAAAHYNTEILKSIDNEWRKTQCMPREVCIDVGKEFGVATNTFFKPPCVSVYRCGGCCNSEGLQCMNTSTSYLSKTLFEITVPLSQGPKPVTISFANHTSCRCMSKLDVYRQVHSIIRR
The test is described as follows: binding ELISA on coated VEGFC. How it is done: Binding to VEGFB, VEGFC, VEGFD and PIGF is assessed via a solid phase binding ELISA. In brief, VEGFB, VEGFC, VEGFD and PIGF (R&D Systems, Minneapolis, Minn., USA) are coated overnight at 4° C. at 1 μg/mL in a 96-well MaxiSorp plate (Nunc, Wiesbaden, Germany). Wells are blocked with a casein solution (1% in PBS). […] As positive controls serial dilutions of the appropriate receptors are taken along and detected with horseradish peroxidase (HRP)-conjugated goat anti-human IgG, Fc specific antibody (Jackson Immuno Research Laboratories Inc., West Grove, Pa., USA) and a subsequent enzymatic reaction in the presence of the substrate TMB (3,3′,5,5′-tetramentylbenzidine) (Pierce, Rockford, Ill., USA).

T1 sequence (P15692 other isoform, or with tags, fused parts or gaps limits assumed): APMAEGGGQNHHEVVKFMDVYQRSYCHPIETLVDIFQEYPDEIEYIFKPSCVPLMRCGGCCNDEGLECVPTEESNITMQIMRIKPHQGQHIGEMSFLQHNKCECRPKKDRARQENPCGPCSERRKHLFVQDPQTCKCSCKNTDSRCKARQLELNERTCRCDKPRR

B1: VEGFBII10C07 (VHH)
VHH: EVQLVESGGGLVQAGGSLSLSCAASARAFSNYAMGWFRQVPGREREFVAVITRSPSNTYYTDSVKGRFTISRDNAKNIVYLQMNSLKPEDTAVYYCAAHYWNSDSYTYTDSRWYNYWGQGTQVTVSS
Regarding B1, the binding result in test [1] is on record as “binds”.

B2: VEGFBII11C08 (VHH)
VHH: EVQLVESGGGLVQAGGSLRLSCAASGRTLSSYGLGWFRQAPGKEREFVAAIGWSGSSTYYADSVKGRFTVSVDNAKNTVYLKMNSLEPEDTAVYYCAAKVRNFNSDWDLLTSYNYWGQGTQVTVSS
Take B2: the binding result in test [1] is recorded as “binds”.

B3: VEGFBII10G04 (VHH)
VHH: EVQLVESGGGLVQAGGSLRLSCAASGDTLSRYAMGWFRQAPGKEREFVASINTSGKRTSYADSMKGRFAVSRDNAKNTGYLQMNSLKLEDTATYYCAADRFFGSDSNEPRAYRYWGQGTQVTVSS
In the case of B3, the binding result in test [1] is listed as “binds”.

B4: VEGFBII10G05 (VHH)
VHH: EVQLVESGGGLVQAGESLRLSCVASGITFSNYNMGWFRQAPGKEREFVATIRHHGYDTYYAESVKGRFTISRDNAKNTVYLQMNSLKPEDTALYSCAKKLFWDMDPKTGFSSWGQGTQVTVSS
Consider B4, for which, in test [1], the binding result is given as “binds”.

B5: VEGFBII10E07 (VHH)
VHH: EVQLVESGGGLVQAGGSLRLSCAASGRTFSNYAMGWFRQAPGKERVLVADISSSGINTYVADAVKGRFTISRDNAKNTVYLQMNSLKPEDTAVYYCAASAWWYSQMARDNYRYWGQGTQVTVSS
Turning to B5, the binding result in test [1] was “binds”.

B6: VEGFBII06G02 (VHH)
VHH: EVQLVESGGGLVQPGGSLRLSCAASGNIFSNNAMAWYRQAPGKQRELVARISSGGGFTYYLDSVKGRFTVSRDNAKNTVYLQMNSLKPEDTAVYYCNAAYRTYNYWGQGTQVTVSS
As for B6, the binding result in test [1] is “binds”.

B7: VEGFBII86H09 (VHH)
VHH: EVQLVESGGGLVQAGGSLRLSCTASGSAFKSYRMGWFRRTPGKEDEFVASISWTYGSTFYADSVKGRFTMSRDKAKNAGYLQMNSLKPEDTALYYCAAGAQSDRYNIRSYDYWGQGTQVTVSS
For B7, the binding result in test [1] is reported as “binds”.

B8: VEGFBII08D09 (VHH)
VHH: EVQLVESGGGLVQAGGSLRLSCAASGRSFSDNVMGWFRQAAGKEREFVAHISRGGSRTEYAESVKGRFTISRDNTKKTMYLQMNSLKPEDTAVYYCAASRSVALATARPYDYWGQGTQVTVSS
B8: the binding result in test [1] is reported as “binds”.

B9: VEGFBII113E03 (VHH)
VHH: EVQLVESGGGLVQTGDSLRLSCEVSGRTFSSYSMGWFRQAQGKEREFVVAISKGGYKYDSVSLEGRFTISKDNAKNTVYLQMNSLRPEDTAVYYCASSRAYGSSRLRLADTYEYWGQGTLVTVSS
For orientation: % inhibition means how much of the control response was suppressed. A word on the IC50: it is the concentration needed to halve the response being measured. For the molecule B9, in test [2], the “% inhibition” value is 100% and the half-inhibitory concentration (IC50) was 290 pM.

B10: VEGFBII114C09 (VHH)
VHH: EVQLVESGGGLVQPGDSLRLSCEVSGRTFSSYSMGWFRQAPGKEREFVVAISKGGYKYDSVSLEGRFTISKDNAKNTVYLQINSLRPEDTAVYYCASSRAYGSSRLRLADTYEYWGQGTLVTVSS
B10: in test [2], the “% inhibition” value was found to be 100% and the IC50 is 215 pM.

B11: VEGFBII114D03 (VHH)
VHH: EVQLVESGGGLVQTGDSLRLSCAVSGRTFSSYSMGWFRQAQGKEREFVVAISKGGYKYDSVSLEGRFTISKDNAKNTVYLQINSLRPEDTAVYYCASSRAYGSSRLRLADTYEYWGQGTLVTVSS
For B11, in test [2], the “% inhibition” value was 100% and the IC50 was 227 pM.

B12: VEGFBII118E10 (VHH)
VHH: EVQLVESGGGLVQTGDSLRLSCEVSGRTFSSYSMGWFRQAQGKEREFVVAISKGGYKYDAVSLEGRFTISKDNAKNTVYLQINSLKPEDTAVYYCASSRAYGSSRLRLADTYEYWGQGTQVTVSS
notes: VEGFBII23B04 with the S60A mutation, purified protein
For the molecule B12, in test [2], the “% inhibition” value is 100% and the IC50 amounted to 189 pM.

B13: VEGFBII114D02 (VHH)
VHH: EVQLVESGGGLVQTGGSLRLSCEVSGRTFSSYSMGWFRQAPGKEREFVVAISKGGYKYDSVSLEGRFTISRDNAKNTVYLQINSLRPEDTAVYYCASSRAYGSSRLRLADTYEYWGQGTLVTVSS
Consider B13, for which, in test [2], the “% inhibition” value was found to be 100% and the IC50 was 199 pM.

B14: VEGFBII05B02 (VHH)
VHH: EVQLVESGGGLVQAGGSLRLSCAASGRTFSTDDVGWFRQAPGKEREFVAVIRWSTGGTYTSDSVKGRFTLSRDNAKNTMYLQMNSLKPEDTAVYYCAARSRPLGAGAWYSGEKHYNYWGQGTQVTVSS
For B14, the binding result in test [1] is recorded as “binds”.

B15: VEGFBII07D08 (VHH)
VHH: EVQLVESGGGLVQTGGSLRLSCAASGRTFSNYAMAWFRQAPGKEREFVSAINQRGSNTNYADSVKGRFTISRDSAKNSVFLQMNSLKPEDTAVYYCAASTWYGYSTYARREEYRYWGQGTQVTVSS
As to B15, in test [1], the binding result is recorded as “binds”.

B16: VEGFBII11F12 (VHH)
VHH: EVQLVESGGGLVQSGGSLRLSCAASGRSFSSLAMGWFRQVPGKDREFVASISQSGITTSYADSVKSRFTISRDSAKNTVYLQMNLLKPEDTAVYYCATSVFYSTALTRPVDYRYWGQGTQVTVSS
B16: the binding result in test [1] is on record as “binds”.

B17: VEGFBII41C05 (VHH)
VHH: EVQLVESGGGLVQAGGSLRLSCAASGRTFSVYTMGWFRQAPGKEREFVATISRTGDRTSYANSVKGRFTISRENAKNTVYLQMNSLKPEDTAVYSCAAGPIAPSPRPREYYYWGQGTQVTVSS
With B17, the binding result in test [1] is “binds”.

B18: VEGFBII11E05 (VHH)
VHH: EVQLVESGGGLVQPGGSLRLSCASSGRLFSFSAMGWFRQAPGKEREFVAAFKWSGSTTYYADYVKGRFTISTDNAKNILFLQMNSLKPEDTAIYYCAVDRFYTGRYYSSDEYDYWGQGTQVTVSS
Regarding B18, the binding result in test [1] is “binds”.

B19: human VEGFR2-Fc chimera (Fc fusion, UniProt P35968 20-764, looked up, not shown: a dimerising Fc or GST)
chain: ASVGLPSVSLDLPRLSIQKDILTIKANTTLQITCRGQRDLDWLWPNNQSGSEQRVEVTECSDGLFCKTLTIPKVIGNDTGAYKCFYRETDLASVIYVYVQDYRSPFIASVSDQHGVVYITENKNKTVVIPCLGSISNLNVSLCARYPEKRFVPDGNRISWDSKKGFTIPSYMISYAGMVFCEAKINDESYQSIMYIVVVVGYRIYDVVLSPSHGIELSVGEKLVLNCTARTELNVGIDFNWEYPSSKHQHKKLVNRDLKTQSGSEMKKFLSTLTIDGVTRSDQGLYTCAASSGLMTKKNSTFVRVHEKPFVAFGSGMESLVEATVGERVRIPAKYLGYPPPEIKWYKNGIPLESNHTIKAGHVLTIMEVSERDTGNYTVILTNPISKEKQSHVVSLVVYVPPQIGEKSLISPVDSYQYGTTQTLTCTVYAIPPPHHIHWYWQLEEECANEPSQAVSVTNPYPCEEWRSVEDFQGGNKIEVNKNQFALIEGKNKTVSTLVIQAANVSALYKCEAVNKVGRGERVISFHVTRGPEITLQPDMQPTEQESVSLWCTADRSTFENLTWYKLGPQPLPIHVGELPTPVCKNLDTLWKLNATMFSNSTNDILIMELKNASLQDQGDYVCLAQDRKTKKRHCVVRQLTVLERVAPTITGNLENQTTSIGESIEVSCTASGNPPPQIMWFKDNETLVEDSGIVLKDGNRNLTIRRVRKEDEGLYTCQACSVLGCAKVEAFFIIEGAQEKTNLE
notes: bought (R&D Systems); also called hVEGFR2-Fc; VEGFR2-huFc
Usually EC50 (read off the curve) stands for the midpoint of the concentration-response curve. A higher EC50 (read off the curve) goes with lower potency in that assay. Regarding B19, the “EC50 (read off the curve)” value with human VEGF-C was around 4000 pM.

B20: VEGFBII11D09 (VHH)
VHH: EEQLVESGGGLVQAGGSLMLSCAASGRALSSYAIGWFRQAPGREREFVARISWSGANTYYADSVKGRFTISRGNAKNTVYLQMNSLKPEDTAAYYCAAQTTSKYDNYDARAYGYWGQGTQVTVSS
As for B20, the binding result in test [1] is listed as “binds”.

B21: VEGFBII11E04 (VHH)
VHH: EVQLVESGGGLVQAGGSLRLSCAASGRTFSSYAMGWFRQAPGKEREFVATISQSGYSTYYADSVKGRFTISRDNAKNTVNLQMNSLKPEDTAVYYCAADPFYSYGSPSPYRYWGQGTQVTVSS
With B21, the binding result in test [1] is “binds”.

B22: VEGFBII03D12 (VHH)
VHH: EVQLVESGGGLVQAGGSLRLSCTASTSIYTITVMAWFRQAPGKEREFVAAITWSAPTTYYADSVKGRFTISRDNAKNTVYLRMNSLKPEDSAIYYCAADRFKGRSIVTPSDYRYWGQGTQVTVSS
As for B22, the binding result in test [1] is “binds”.

B23: VEGFBII05B03 (VHH)
VHH: EVQLVESGGGLAQAGDSLRLSCAASGRSFSHYNMGWFRQAPGKEREFVASIRGGGGSTTYANSVKDRFTISRENAKNTVYLQMNSLKPEDTAVYYCAATAFYRGPYDYDYWGQGTQVTVSS
As to B23, the binding result in test [1] is recorded as “binds”.
